Reference: publication doi:10.1101/2020.02.16.951632
“And” between values parts separate entries of the source, which are not always exact repeats. Equal entries are not always repeated.

Columns and labels:
[1] = target: chloride intracellular channel 1 construct CLIC1C24 (UniProt O00299); test: two-colour single-molecule TIRF colocalisation with photobleaching step counting
[2] = target: chloride intracellular channel 1 construct CLIC1C24 (UniProt O00299); test: FRET or BRET

- proportion of CLIC1C24 colocalised with αBc (C176) (maximum, after 4 hr) [1]: 50%
- αBc subunits per complex (0.25 – 0.5 hr) [1]: 1 subunits and 3 subunits
- αBc subunits per complex (complexes whose abundance increased after 1 hr) [1]: > 6 subunits
- αBc subunits per complex (more complexes at molar ratio 2:1 to 4:1) [1]: > 10 subunits
- stoichiometry N ([1]; scale: αBc per CLIC1): 1
- initial FRET efficiency (E) of the complexes [2]: 0.8 to 1
Substance: human αB-crystallin mutant αBc_(C176), fluorescently labelled (natural protein)
